From US20230287598A1 (TAURUS BIOSCIENCES, published 2023)

T1: CXCR1 (UniProt P25024 1-350, limits assumed)
T1 construct: whole, on cells; DiscoveRx PathHunter cell line; any reporter tag on the receptor is not described; also called CXCR1 receptor; CXCR1-U2OS
T1 sequence (looked up): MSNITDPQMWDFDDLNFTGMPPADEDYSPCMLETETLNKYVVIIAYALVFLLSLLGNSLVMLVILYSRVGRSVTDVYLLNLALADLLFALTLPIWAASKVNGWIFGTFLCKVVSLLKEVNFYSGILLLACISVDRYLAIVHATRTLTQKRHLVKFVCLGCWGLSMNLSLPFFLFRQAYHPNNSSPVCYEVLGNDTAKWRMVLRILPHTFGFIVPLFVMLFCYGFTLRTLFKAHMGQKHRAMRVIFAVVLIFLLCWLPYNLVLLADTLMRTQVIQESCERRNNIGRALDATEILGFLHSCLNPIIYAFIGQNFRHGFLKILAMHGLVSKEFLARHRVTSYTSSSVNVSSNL


biological target: T1, CXCR1; assay: flow cytometry, supernatant at 5 nM IgG

Binder | Specific Binding (CXCR1-Cell median AFU / Parental Cell median AFU)
VH4-34+CDR3-IL8 / VL1-51 S2A, T5N, P8S, A12G, A13S, P14L, D51G, N52D, N53T IgG (antibody, nt HC 430, LC 444) VH: QVQLQQWGAGLLKPSETLSLTCAVYGGSFSGYYWSWIRQPPGKGLEWIGEINHSGSTNYNPSLKSRVTISVDTSKNQFSLKLSSVTAADTAVYYCTSVHQETKKYQSPRSAKELRCQCIKTYSKPFHPKFIKELRVIESGPHCANTEIIVKLSDGRELCLDPKENWVQRVVEKFLKRAENSGSGSYTYNYEWHVDVWGQGLLVTVSSAS light: QAVLNQPSSVSGSLGQKVTISCSGSSSNIGNNYVSWYQQLPGTAPKLLIYGDTKRPSGIPDRFSGSKSGTSATLGITGLQTGDEADYYCASAEDSSSNAVFGSGTTLTVLGQPKAAPSVTLFPPSSEELQANKATLVCLISDFYPGAVTVAWKADSSPVKAGVETTTPSKQSNNKYAASSYLSLTPEQWKSHRSYSCQVTHEGSTVEKTVAPTECS | 3
VH4-34+CDR3-IL8_CDR1 Cow_CDR2 E50S / VL1-51 S2A, T5N, P8S, A12G, A13S, P14L IgG (antibody) VH: QVQLQQWGAGLLKPSETLSLTCTASGFSLSDKAVGWIRQPPGKGLEWIGSINHSGSTNYNPSLKSRVTISVDTSKNQFSLKLSSVTAADTAVYYCTSVHQETKKYQSPRSAKELRCQCIKTYSKPFHPKFIKELRVIESGPHCANTEIIVKLSDGRELCLDPKENWVQRVVEKFLKRAENSGSGSYTYNYEWHVDVWGQGLLVTVSSAS light: QAVLNQPSSVSGSLGQKVTISCSGSSSNIGNNYVSWYQQLPGTAPKLLIYDNNKRPSGIPDRFSGSKSGTSATLGITGLQTGDEADYYCASAEDSSSNAVFGSGTTLTVLGQPKAAPSVTLFPPSSEELQANKATLVCLISDFYPGAVTVAWKADSSPVKAGVETTTPSKQSNNKYAASSYLSLTPEQWKSHRSYSCQVTHEGSTVEKTVAPTECS | 5
VH4-34+CDR3-IL8_CDR1 G31D,Y32K_CDR2 E50S / VL1-51 S2A, T5N, P8S, A12G, A13S, P14L IgG (antibody) VH: QVQLQQWGAGLLKPSETLSLTCAVYGGSFSDKYWSWIRQPPGKGLEWIGSINHSGSTNYNPSLKSRVTISVDTSKNQFSLKLSSVTAADTAVYYCTSVHQETKKYQSPRSAKELRCQCIKTYSKPFHPKFIKELRVIESGPHCANTEIIVKLSDGRELCLDPKENWVQRVVEKFLKRAENSGSGSYTYNYEWHVDVWGQGLLVTVSSAS light: QAVLNQPSSVSGSLGQKVTISCSGSSSNIGNNYVSWYQQLPGTAPKLLIYDNNKRPSGIPDRFSGSKSGTSATLGITGLQTGDEADYYCASAEDSSSNAVFGSGTTLTVLGQPKAAPSVTLFPPSSEELQANKATLVCLISDFYPGAVTVAWKADSSPVKAGVETTTPSKQSNNKYAASSYLSLTPEQWKSHRSYSCQVTHEGSTVEKTVAPTECS | 5
VH4-34+CDR3-IL8_CDR1 G31D,Y32K / VL1-51 S2A, T5N, P8S, A12G, A13S, P14L IgG (antibody) VH: QVQLQQWGAGLLKPSETLSLTCAVYGGSFSDKYWSWIRQPPGKGLEWIGEINHSGSTNYNPSLKSRVTISVDTSKNQFSLKLSSVTAADTAVYYCTSVHQETKKYQSPRSAKELRCQCIKTYSKPFHPKFIKELRVIESGPHCANTEIIVKLSDGRELCLDPKENWVQRVVEKFLKRAENSGSGSYTYNYEWHVDVWGQGLLVTVSSAS light: QAVLNQPSSVSGSLGQKVTISCSGSSSNIGNNYVSWYQQLPGTAPKLLIYDNNKRPSGIPDRFSGSKSGTSATLGITGLQTGDEADYYCASAEDSSSNAVFGSGTTLTVLGQPKAAPSVTLFPPSSEELQANKATLVCLISDFYPGAVTVAWKADSSPVKAGVETTTPSKQSNNKYAASSYLSLTPEQWKSHRSYSCQVTHEGSTVEKTVAPTECS | 4
VH4-34+CDR3-IL8_CDR1 Cow / VL1-51 S2A, T5N, P8S, A12G, A13S, P14L, D51G, N52D, N53T IgG (antibody) VH: QVQLQQWGAGLLKPSETLSLTCTASGFSLSDKAVGWIRQPPGKGLEWIGEINHSGSTNYNPSLKSRVTISVDTSKNQFSLKLSSVTAADTAVYYCTSVHQETKKYQSPRSAKELRCQCIKTYSKPFHPKFIKELRVIESGPHCANTEIIVKLSDGRELCLDPKENWVQRVVEKFLKRAENSGSGSYTYNYEWHVDVWGQGLLVTVSSAS light: QAVLNQPSSVSGSLGQKVTISCSGSSSNIGNNYVSWYQQLPGTAPKLLIYGDTKRPSGIPDRFSGSKSGTSATLGITGLQTGDEADYYCASAEDSSSNAVFGSGTTLTVLGQPKAAPSVTLFPPSSEELQANKATLVCLISDFYPGAVTVAWKADSSPVKAGVETTTPSKQSNNKYAASSYLSLTPEQWKSHRSYSCQVTHEGSTVEKTVAPTECS | 4
VH4-34+CDR3-IL8_CDR1-Cow_CDR2-Cow / VL1-51 S2A, T5N, P8S, A12G, A13S, P14L IgG (antibody, also called BID 36; VH4-34 MutB IL-8 CDR1cow CDR2cow) VH: QVQLQQWGAGLLKPSETLSLTCTASGFSLSDKAVGWIRQPPGKGLEWLGSIDTGGNTGYNPSLKSRVTISVDTSKNQFSLKLSSVTAADTAVYYCTSVHQETKKYQSPRSAKELRCQCIKTYSKPFHPKFIKELRVIESGPHCANTEIIVKLSDGRELCLDPKENWVQRVVEKFLKRAENSGSGSYTYNYEWHVDVWGQGLLVTVSSAS light: QAVLNQPSSVSGSLGQKVTISCSGSSSNIGNNYVSWYQQLPGTAPKLLIYDNNKRPSGIPDRFSGSKSGTSATLGITGLQTGDEADYYCASAEDSSSNAVFGSGTTLTVLGQPKAAPSVTLFPPSSEELQANKATLVCLISDFYPGAVTVAWKADSSPVKAGVETTTPSKQSNNKYAASSYLSLTPEQWKSHRSYSCQVTHEGSTVEKTVAPTECS | 11
VH4-34+CDR3-IL8_CDR1 Cow / VL1-51 S2A, T5N, P8S, A12G, A13S, P14L, K46R, L47T, D51G, N52D, N53T IgG (antibody) VH: QVQLQQWGAGLLKPSETLSLTCTASGFSLSDKAVGWIRQPPGKGLEWIGEINHSGSTNYNPSLKSRVTISVDTSKNQFSLKLSSVTAADTAVYYCTSVHQETKKYQSPRSAKELRCQCIKTYSKPFHPKFIKELRVIESGPHCANTEIIVKLSDGRELCLDPKENWVQRVVEKFLKRAENSGSGSYTYNYEWHVDVWGQGLLVTVSSAS light: QAVLNQPSSVSGSLGQKVTISCSGSSSNIGNNYVSWYQQLPGTAPRTLIYGDTKRPSGIPDRFSGSKSGTSATLGITGLQTGDEADYYCASAEDSSSNAVFGSGTTLTVLGQPKAAPSVTLFPPSSEELQANKATLVCLISDFYPGAVTVAWKADSSPVKAGVETTTPSKQSNNKYAASSYLSLTPEQWKSHRSYSCQVTHEGSTVEKTVAPTECS | 10
VH4-34+CDR3-IL8_CDR1-Cow / VL1-51 S2A, T5N, P8S, A12G, A13S, P14L IgG (antibody, also called BID 34) VH: QVQLQQWGAGLLKPSETLSLTCTASGFSLSDKAVGWIRQPPGKGLEWIGEINHSGSTNYNPSLKSRVTISVDTSKNQFSLKLSSVTAADTAVYYCTSVHQETKKYQSPRSAKELRCQCIKTYSKPFHPKFIKELRVIESGPHCANTEIIVKLSDGRELCLDPKENWVQRVVEKFLKRAENSGSGSYTYNYEWHVDVWGQGLLVTVSSAS light: QAVLNQPSSVSGSLGQKVTISCSGSSSNIGNNYVSWYQQLPGTAPKLLIYDNNKRPSGIPDRFSGSKSGTSATLGITGLQTGDEADYYCASAEDSSSNAVFGSGTTLTVLGQPKAAPSVTLFPPSSEELQANKATLVCLISDFYPGAVTVAWKADSSPVKAGVETTTPSKQSNNKYAASSYLSLTPEQWKSHRSYSCQVTHEGSTVEKTVAPTECS | 4
VH4-34+CDR3-IL8_CDR1 Cow_CDR2 Cow / VL1-51 S2A, T5N, P8S, A12G, A13S, P14L, D51G, N52D, N53T IgG (antibody) VH: QVQLQQWGAGLLKPSETLSLTCTASGFSLSDKAVGWIRQPPGKGLEWLGSIDTGGNTGYNPSLKSRVTISVDTSKNQFSLKLSSVTAADTAVYYCTSVHQETKKYQSPRSAKELRCQCIKTYSKPFHPKFIKELRVIESGPHCANTEIIVKLSDGRELCLDPKENWVQRVVEKFLKRAENSGSGSYTYNYEWHVDVWGQGLLVTVSSAS light: QAVLNQPSSVSGSLGQKVTISCSGSSSNIGNNYVSWYQQLPGTAPKLLIYGDTKRPSGIPDRFSGSKSGTSATLGITGLQTGDEADYYCASAEDSSSNAVFGSGTTLTVLGQPKAAPSVTLFPPSSEELQANKATLVCLISDFYPGAVTVAWKADSSPVKAGVETTTPSKQSNNKYAASSYLSLTPEQWKSHRSYSCQVTHEGSTVEKTVAPTECS | 10
VH4-34+CDR3-IL8_CDR1 G31D,Y32K / VL1-51 S2A, T5N, P8S, A12G, A13S, P14L, K46R, L47T, D51G, N52D, N53T IgG (antibody, nt HC 434, LC 486) VH: QVQLQQWGAGLLKPSETLSLTCAVYGGSFSDKYWSWIRQPPGKGLEWIGEINHSGSTNYNPSLKSRVTISVDTSKNQFSLKLSSVTAADTAVYYCTSVHQETKKYQSPRSAKELRCQCIKTYSKPFHPKFIKELRVIESGPHCANTEIIVKLSDGRELCLDPKENWVQRVVEKFLKRAENSGSGSYTYNYEWHVDVWGQGLLVTVSSAS light: QAVLNQPSSVSGSLGQKVTISCSGSSSNIGNNYVSWYQQLPGTAPRTLIYGDTKRPSGIPDRFSGSKSGTSATLGITGLQTGDEADYYCASAEDSSSNAVFGSGTTLTVLGQPKAAPSVTLFPPSSEELQANKATLVCLISDFYPGAVTVAWKADSSPVKAGVETTTPSKQSNNKYAASSYLSLTPEQWKSHRSYSCQVTHEGSTVEKTVAPTECS | 15
VH4-34+CDR3-IL8_CDR1 Cow_CDR2 E50S / VL1-51 S2A, T5N, P8S, A12G, A13S, P14L, K46R, L47T, D51G, N52D, N53T IgG (antibody) VH: QVQLQQWGAGLLKPSETLSLTCTASGFSLSDKAVGWIRQPPGKGLEWIGSINHSGSTNYNPSLKSRVTISVDTSKNQFSLKLSSVTAADTAVYYCTSVHQETKKYQSPRSAKELRCQCIKTYSKPFHPKFIKELRVIESGPHCANTEIIVKLSDGRELCLDPKENWVQRVVEKFLKRAENSGSGSYTYNYEWHVDVWGQGLLVTVSSAS light: QAVLNQPSSVSGSLGQKVTISCSGSSSNIGNNYVSWYQQLPGTAPRTLIYGDTKRPSGIPDRFSGSKSGTSATLGITGLQTGDEADYYCASAEDSSSNAVFGSGTTLTVLGQPKAAPSVTLFPPSSEELQANKATLVCLISDFYPGAVTVAWKADSSPVKAGVETTTPSKQSNNKYAASSYLSLTPEQWKSHRSYSCQVTHEGSTVEKTVAPTECS | 6
VH4-34+CDR3-IL8_CDR1 G31D,Y32K_CDR2 E50S / VL1-51 S2A, T5N, P8S, A12G, A13S, P14L, D51G, N52D, N53T IgG (antibody) VH: QVQLQQWGAGLLKPSETLSLTCAVYGGSFSDKYWSWIRQPPGKGLEWIGSINHSGSTNYNPSLKSRVTISVDTSKNQFSLKLSSVTAADTAVYYCTSVHQETKKYQSPRSAKELRCQCIKTYSKPFHPKFIKELRVIESGPHCANTEIIVKLSDGRELCLDPKENWVQRVVEKFLKRAENSGSGSYTYNYEWHVDVWGQGLLVTVSSAS light: QAVLNQPSSVSGSLGQKVTISCSGSSSNIGNNYVSWYQQLPGTAPKLLIYGDTKRPSGIPDRFSGSKSGTSATLGITGLQTGDEADYYCASAEDSSSNAVFGSGTTLTVLGQPKAAPSVTLFPPSSEELQANKATLVCLISDFYPGAVTVAWKADSSPVKAGVETTTPSKQSNNKYAASSYLSLTPEQWKSHRSYSCQVTHEGSTVEKTVAPTECS | 17
